PMC11379886, “Insights into phosphoethanolamine cellulose synthesis and secretion across the Gram-negative cell envelope” (Nature Communications, 2024)

B2: Escherichia coli BcsB (natural protein)
chain: TPATQPLINAEPAVAAQTEQNPQVGQVMPGVQGADAPVVAQNGPSRDVKLTFAQIAPPPGSMVLRGINPNGSIEFGMRSDEVVTKAMLNLEYTPSPSLLPVQSQLKVYLNDELMGVLPVTKEQLGKKTLAQMPINPLFISDFNRVRLEFVGHYQDVCEKPASTTLWLDVGRSSGLDLTYQTLNVKNDLSHFPVPFFDPSDNRTNTLPMVFAGAPDVGLQQASAIVASWFGSRSGWRGQNFPVLYNQLPDRNAIVFATNDKRPDFLRDHPAVKAPVIEMINHPQNPYVKLLVVFGRDDKDLLQAAKGIAQGNILFRGESVVVNEVKPLLPRKPYDAPNWVRTDRPVTFGELKTYEEQLQSSGLEPAAINVSLNLPPDLYLMRSTGIDMDINYRYTMPPVKDSSRMDISLNNQFLQSFNLSSKQEANRLLLRIPVLQGLLDGKTDVSIPALKLGATNQLRFDFEYMNPMPGGSVDNCITFQPVQNHVVIGDDSTIDFSKYYHFIPMPDLRAFANAGFPFSRMADLSQTITVMPKAPNEAQMETLLNTVGFIGAQTGFPAINLTVTDDGSTIQGKDADIMIIGGIPDKLKDDKQIDLLVQATESWVKTPMRQTPFPGIVPDESDRAAETRSTLTSSGAMAAVIGFQSPYNDQRSVIALLADSPRGYEMLNDAVNDSGKRATMFGSVAVIRESGINSLRVGDVYYVGHLPWFERVWYALANHPILLAVLAAISVILLAWVLWRLLRIISRRRLNPDNE
notes: BcsB, periplasmic inner-membrane-anchored subunit of the E. coli cellulose synthase complex; In the BcsB-BcsC fusion made from the same plasmid the BcsB part is residues 55-779; also called Ec BcsB; not shown: Strep-tag II, N-terminal, kept

Columns and labels:
Escherichia coli BcsB = biological target: B2; assay: cryo-EM structure; purified Ec Bcs inner membrane complex in MSP2N2 nanodiscs incubated with the separately purified periplasmic domain of BcsC (TPR#1-18) at a molar ratio of 1:5 for 1 h on ice; low-resolution map; conditions: both partners purified
[1] = biological target: the molecule itself; assay: as above
[2] = biological target: T1, Escherichia coli BcsB (residues 55–779), as it stands in the BcsB-BcsC fusion (Escherichia coli, UniProt P37652 55-779); assay: cryo-EM structure; BcsC TPR#1-4 fused to the N-terminus of BcsB, co-expressed with all other Bcs components, purified in detergent, about 2.2 mg/mL; focused refinement of a tetrameric BcsB assembly, about 3.2 Å; conditions: both partners purified
T1 construct: E. coli BcsB, residues 55-779; Joined on one chain with Strep-tag II, BcsC 21-179 and a GSGSGS linker at its N-terminus (molecule m11); written apart for the BcsB-BcsC pair of the structure; source: E. coli C43, as part of the BcsB-BcsC fusion chain, co-purified with the Bcs complex
T1 sequence (looked up): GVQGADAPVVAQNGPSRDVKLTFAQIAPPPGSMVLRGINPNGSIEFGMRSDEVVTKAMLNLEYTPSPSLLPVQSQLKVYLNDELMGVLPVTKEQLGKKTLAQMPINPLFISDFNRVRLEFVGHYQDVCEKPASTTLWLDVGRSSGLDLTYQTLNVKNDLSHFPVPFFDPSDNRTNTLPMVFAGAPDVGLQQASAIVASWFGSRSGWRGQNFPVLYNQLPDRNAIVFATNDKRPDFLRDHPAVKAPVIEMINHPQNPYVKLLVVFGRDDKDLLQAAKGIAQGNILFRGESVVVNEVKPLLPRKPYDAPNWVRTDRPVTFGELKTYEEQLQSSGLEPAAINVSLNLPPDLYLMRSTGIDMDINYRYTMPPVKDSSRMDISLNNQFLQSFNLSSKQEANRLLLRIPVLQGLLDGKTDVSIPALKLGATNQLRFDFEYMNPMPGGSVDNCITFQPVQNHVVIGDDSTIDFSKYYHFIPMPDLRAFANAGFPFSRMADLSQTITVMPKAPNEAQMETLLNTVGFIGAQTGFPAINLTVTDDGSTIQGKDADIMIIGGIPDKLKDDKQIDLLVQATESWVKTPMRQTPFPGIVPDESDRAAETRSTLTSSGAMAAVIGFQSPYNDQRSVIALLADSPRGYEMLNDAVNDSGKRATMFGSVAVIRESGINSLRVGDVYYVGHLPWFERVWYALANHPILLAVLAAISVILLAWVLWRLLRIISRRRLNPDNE

[3] = biological target: the molecule itself; assay: as above
[4] = biological target: the molecule itself; assay: cryo-EM structure; BcsC incubated with purified BcsZ at a molar 1:1.5; single particle analysis, about 2.7 Å for BcsZ
[5] = biological target: the molecule itself; assay: cryo-EM structure; reprocessing of the previously published cryo-EM data (EMD-23267) of the co-expressed, co-purified Ec inner membrane-associated Bcs complex, focused on BcsA-BcsG; ~5.7 Å; AlphaFold2 model docked as rigid bodies

B1: periplasmic domain of Escherichia coli BcsC (TPR#1–18; residues 24–709) (domain or fragment, UniProt P37650 24-709, looked up)
chain: APTAQQQLLEQVRLGEATHREDLVQQSLYRLELIDPNNPDVVAARFRSLLRQGDIDGAQKQLDRLSQLAPSSNAYKSSRTTMLLSTPDGRQALQQARLQATTGHAEEAVASYNKLFNGAPPEGDIAVEYWSTVAKIPARRGEAINQLKRINADAPGNTGLQNNLALLLFSSDRRDEGFAVLEQMAKSNAGREGASKIWYGQIKDMPVSDASVSALKKYLSIFSDGDSVAAAQSQLAEQQKQLADPAFRARAQGLAAVDSGMAGKAIPELQQAVRANPKDSEALGALGQAYSQKGDRANAVANLEKALALDPHSSNNDKWNSLLKVNRYWLAIQQGDAALKANNPDRAERLFQQARNVDNTDSYAVLGLGDVAMARKDYPAAERYYQQTLRMDSGNTNAVRGLANIYRQQSPEKAEAFIASLSASQRRSIDDIERSLQNDRLAQQAEALENQGKWAQAAALQRQRLALDPGSVWITYRLSQDLWQAGQRSQADTLMRNLAQQKSNDPEQVYAYGLYLSGHDQDRAALAHINSLPRAQWNSNIQELVNRLQSDQVLETANRLRESGKEAEAEAMLRQQPPSTRIDLTLADWAQQRRDYTAARAAYQNVLTREPANADAILGLTEVDIAAGDKAAARSQLAKLPATDNASLNTQRRVALAQAQLGDTAAAQRTFNKLIPQAKSQPPSME
notes: BcsC periplasmic domain, TPR#1-18, residues 24-709, cloned into pET20b; also called BcsC's periplasmic domain; N-terminal 18 TPRs of BcsC; source: E. coli Rosetta 2, periplasmic extract, purified (Ni-NTA, SEC)
Escherichia coli BcsB
  binding result: binds

## B2
[1]
  stoichiometry N: 6

B3: Escherichia coli BcsC TPR#1–4 (residues 21–179), as it stands in the BcsB-BcsC fusion (domain or fragment, UniProt P37650 21-179, looked up)
chain: VEAAPTAQQQLLEQVRLGEATHREDLVQQSLYRLELIDPNNPDVVAARFRSLLRQGDIDGAQKQLDRLSQLAPSSNAYKSSRTTMLLSTPDGRQALQQARLQATTGHAEEAVASYNKLFNGAPPEGDIAVEYWSTVAKIPARRGEAINQLKRINADAPG
notes: N-terminal four TPRs of E. coli BcsC (TPR#1-4), residues 21-179; Joined on one chain with BcsB 55-779 through a GSGSGS linker (molecule m11); written apart for the BcsB-BcsC pair of the structure; also called BcsC's TPRs#1–4; BcsC N-terminal TPRs; source: E. coli C43, as part of the BcsB-BcsC fusion chain, co-purified with the Bcs complex; not shown: Strep-tag II, N-terminal, kept
[2]
  binding result: binds

B4: BcsB-BcsC fusion: BcsC TPR#1–4 fused to the N-terminus of Escherichia coli BcsB (other)
chain: VEAAPTAQQQLLEQVRLGEATHREDLVQQSLYRLELIDPNNPDVVAARFRSLLRQGDIDGAQKQLDRLSQLAPSSNAYKSSRTTMLLSTPDGRQALQQARLQATTGHAEEAVASYNKLFNGAPPEGDIAVEYWSTVAKIPARRGEAINQLKRINADAPGGSGSGSGVQGADAPVVAQNGPSRDVKLTFAQIAPPPGSMVLRGINPNGSIEFGMRSDEVVTKAMLNLEYTPSPSLLPVQSQLKVYLNDELMGVLPVTKEQLGKKTLAQMPINPLFISDFNRVRLEFVGHYQDVCEKPASTTLWLDVGRSSGLDLTYQTLNVKNDLSHFPVPFFDPSDNRTNTLPMVFAGAPDVGLQQASAIVASWFGSRSGWRGQNFPVLYNQLPDRNAIVFATNDKRPDFLRDHPAVKAPVIEMINHPQNPYVKLLVVFGRDDKDLLQAAKGIAQGNILFRGESVVVNEVKPLLPRKPYDAPNWVRTDRPVTFGELKTYEEQLQSSGLEPAAINVSLNLPPDLYLMRSTGIDMDINYRYTMPPVKDSSRMDISLNNQFLQSFNLSSKQEANRLLLRIPVLQGLLDGKTDVSIPALKLGATNQLRFDFEYMNPMPGGSVDNCITFQPVQNHVVIGDDSTIDFSKYYHFIPMPDLRAFANAGFPFSRMADLSQTITVMPKAPNEAQMETLLNTVGFIGAQTGFPAINLTVTDDGSTIQGKDADIMIIGGIPDKLKDDKQIDLLVQATESWVKTPMRQTPFPGIVPDESDRAAETRSTLTSSGAMAAVIGFQSPYNDQRSVIALLADSPRGYEMLNDAVNDSGKRATMFGSVAVIRESGINSLRVGDVYYVGHLPWFERVWYALANHPILLAVLAAISVILLAWVLWRLLRIISRRRLNPDNE
notes: N-terminal four TPRs of E. coli BcsC (TPR#1-4), residues 21-179; linker; E. coli BcsB, residues 55-779; The best map came from a tetrameric BcsB assembly; a fully assembled complex was also seen; also called nSS-Strep-TPR(#1-4)-(GS)3-B; engineered BcsB-BcsC fusion; source: E. coli C43, co-expressed with all other Bcs components, co-purified (Ni-NTA, Strep-Tactin, SEC), in detergent; not shown: …
[3]
  stoichiometry N: 4

B5: Escherichia coli cellulase BcsZ (enzyme)
chain: ACTWPAWEQFKKDYISQEGRVIDPSDARKITTSEGQSYGMFSALAANDRAAFDNILDWTQNNLAQGSLKERLPAWLWGKKENSKWEVLDSNSASDGDVWMAWSLLEAGRLWKEQRYTDIGSALLKRIAREEVVTVPGLGSMLLPGKVGFAEDNSWRFNPSYLPPTLAQYFTRFGAPWTTLRETNQRLLLETAPKGFSPDWVRYEKDKGWQLKAEKTLISSYDAIRVYMWVGMMPDSDPQKARMLNRFKPMATFTEKNGYPPEKVDVATGKAQGKGPVGFSAAMLPFLQNRDAQAVQRQRVADNFPGSDAYYNYVLTLFGQGWDQHRFRFSTKGELLPDWGQECANSH
notes: End of the His tag read from the plasmid's name; also called Ec BcsZ
[4]
  stoichiometry N: 4

B6: Escherichia coli pEtN transferase BcsG, FLAG-tagged (enzyme, UniProt P37659 1-559, looked up)
chain: MTQFTQNTAMPSSLWQYWRGLSGWNFYFLVKFGLLWAGYLNFHPLLNLVFAAFLLMPLPRYSLHRLRHWIALPIGFALFWHDTWLPGPESIMSQGSQVAGFSTDYLIDLVTRFINWQMIGAIFVLLVAWLFLSQWIRITVFVVAILLWLNVLTLAGPSFSLWPAGQPTTTVTTTGGNAAATVAATGGAPVVGDMPAQTAPPTTANLNAWLNNFYNAEAKRKSTFPSSLPADAQPFELLVINICSLSWSDIEAAGLMSHPLWSHFDIEFKNFNSATSYSGPAAIRLLRASCGQTSHTNLYQPANNDCYLFDNLSKLGFTQHLMMGHNGQFGGFLKEVRENGGMQSELMDQTNLPVILLGFDGSPVYDDTAVLNRWLDVTEKDKNSRSATFYNTLPLHDGNHYPGVSKTADYKARAQKFFDELDAFFTELEKSGRKVMVVVVPEHGGALKGDRMQVSGLRDIPSPSITDVPVGVKFFGMKAPHQGAPIVIEQPSSFLAISDLVVRVLDGKIFTEDNVDWKKLTSGLPQTAPVSENSNAVVIQYQDKPYVRLNGGDWVPYPQ
notes: present as the full-length enzyme in the analysed sample; End of the FLAG tag read from the plasmid's name (G-FLAG); also called Ec BcsG; source: E. coli C43 (DE3), co-expressed with the other Bcs components or with the BcsA chimera, Rs BcsB and BcsF; co-purified; not shown: FLAG, C-terminal, kept
[5]
  stoichiometry N: 3
